The target of this data set is T1, CREB-HZ (CREB-H bZIP region) (Mus musculus, UniProt Q91XE9 206-318).
T1 sequence: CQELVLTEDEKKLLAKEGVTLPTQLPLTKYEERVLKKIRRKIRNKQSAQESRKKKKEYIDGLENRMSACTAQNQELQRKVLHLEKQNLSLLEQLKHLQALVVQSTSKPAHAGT
The data set is described as follows: competition.

B1: box B, alcohol dehydrogenase-1 gene (dsDNA)
DNA 1: GATCTTGTACACGTAATCGTAGGATCC
DNA 2: GGATCCTACGATTACGTGTACAAGATC
B1: the binding result was “binds”.
